Test results as given in patent US12551573B2, “Compositions and methods for the targeting of PCSK9” (Scribe Therapeutics Inc., priority 2022, dated 2026).

Each molecule was assayed on HBEGF locus. Conditions: high-throughput screen of dXR repression of the HBEGF gene; abundance of each domain in the library before and after diphtheria toxin selection; HEK293T cells.
Format: cell-based, human

Molecule	Log2 (fold change)
DOMAIN_18459 (protein, listed as Monodelphis domestica) GQEEVAFKDVAVDFTREEWRLLSPPQKELYKEVMLENIRNLLSVGLPAPPEDMISYLEQREAPWMLEQEGLRSYSPGEEIR	3.1352
DOMAIN_18646 (protein, listed as Monodelphis domestica) VKEVVTLQDVAVDFTWEEWRLLSPPQKELYREVMLENAQNLLSVGLPAPLEDVLSYLEQRKGPWMLEQKRLRSCCPGEIRL	2.4678
DOMAIN_17474 (protein, listed as Monodelphis domestica) QVPVTFEDLAVRFSAEEWHLLEEWQREFHRDVMRENYEMLVSLGTAQLLPLSAFLSLTEPQEDMGDNGCSDGEWERPGGGL	2.683
DOMAIN_18923 (protein, listed as Callithrix jacchus) ASGTLTFDDVALYFSEQEWEILEKWQKQMYKQEMKTNYETLDSLGYAFSKPDLITWMEKGRMLLISDQGRLHKTKRTAGPP	2.2053
DOMAIN_18693 (protein, listed as Camelus dromedarius) GQESVSFKDVTVDFTWDEWLQLTGMQRTLYRDVMLENYSHLVSVGCCITKPEVIFKLEQGEEPWPREGELPGRRDPDRSQE	3.0179
DOMAIN_17775 (protein, listed as Camelus dromedarius) MPQGSVSFKDVTVDFTQEEWQQLDSAQKALYRDVMLENYCHFVSVGFHMTKPDMIHKLEQGKELWTTGRIFPSRSYLGESV	2.6595
DOMAIN_18979 (protein, listed as Pongo sp.) CYQDSVTFDDVAVDFTQEEWTLLDSTQRSLYSDVMLENYKNLATVGGQIIKPSLISWLEQEESKTVQGGVLQGRKTQWRGT	2.0034
DOMAIN_17801 (protein, listed as Pongo sp.) EPGAVSFADVAVYFCREEWGCLRPAQRALYRDVMRETYGHLSALGIGGNKPALISWVEEEAELWDPAAQDPEVAKCQTEAD	2.9733
DOMAIN_17689 (protein, Cercocebus atys) MAFEDVAVYFSQEEWGLLDTAQRALYRRVMLENFTLVTSLGLSTSRPHVVIQLERGEEPWVPSGKDMTLARNTYRRLNAGE	3.6469
DOMAIN_17534 (protein, Cercocebus atys) SQGSVSFKDVTVDFTQEEWQQLDPAQKALYRDVMLENYCHFVSVGFHMTKPDMIRKLEQGEELWTQRIFPSYSYLAEDGKT	2.9374
DOMAIN_17264 (protein, Vicugna pacos) CEVSVSFEDVTVDFSREEWQHLDPAQRRLYRDVTLENYSHLCSVGYQVPKPEVIFKLEQGEGPWTLEEETPHQSCSDEDMG	3.0866
DOMAIN_18670 (protein, listed as Neomonachus schauinslandi) LQVSVSFEDVTVDFSREEWQHLDPAQRRLYRDVTLENYSHLHSVGYQVPKPEVIFKLEQGEGPWTLEGETPHQGCSDEAIG	3.1792
DOMAIN_19388 (protein, listed as Physeter macrocephalus) MTFEDVAVEFTRWEWGQLDPTQKDVYREVMLENFKNLASLGFPMSKPYVICRLEEGEEPCILEREISTGAPADWERRRQAK	3.2831
DOMAIN_17234 (protein, Delphinapterus leucas) PENGVTFEDIALYFSWEEWKLLDEAQRRLYHDVMLENFALISSLGVWSGEENVEASFEQSVSVVMSQVRTSKEPSSSQKTH	2.0152
DOMAIN_18726 (protein, listed as Myotis davidii) PNALVTFQDVFVDFSPEELASLSAAQRRLHREVTLENYRNLVSLGYQFPRPDIITQLEEEESSAMEEDSNTKTGPDWETGP	2.9362
DOMAIN_17497 (protein, listed as Monodelphis domestica) AQEVVSFKDVAVDFTREEWRLLSPPQKELYKEVMLENARNLLSVGLPAPSEEVISYLEQREAPWILEQEGLRNCCSEGEIR	2.8088
DOMAIN_17548 (protein, listed as Neomonachus schauinslandi) VQGSMSFEDVIVEFTQDEWQYMSPAQRILYRDVMLENYSHLISVGYCTTKPEMIFKLEQGEEPWSLEEEFLNQRYPGYFSV	2.8002
DOMAIN_17180 (protein, listed as Zalophus californianus) FQDSVTFEDVAVRFSSGEWQCLTRAQRHLYADVMLENYGNMISVGFAVPKPPLISHLEQGAEPCVQDLQDGGFLSCSFPVS	2.945

Same assay, conditions: high-throughput screen of dXR repression of the HBEGF gene; abundance of each domain in the library before vs after diphtheria toxin selection; listed domains met p-value <0.01 and log2(fold change) >2

Molecule	Log2 (fold change)
DOMAIN_20025 (protein, listed as Carlito syrichta) LQGSVSFKDVTVDFTQEEWHQLNPAQKALYRDVMLENYCHFISVGFHMTKPDMIRKLEQGEELWTERIFSRQSHLEEDGKA	2.2451
DOMAIN_19563 (protein, listed as Papio anubis) AQMLVTFKDVAVTFTQEEWRQLDLTQRTLYREVMLETCGLLVSLGHRVPKPELVHLLEHGQELWTVKRGLSDPTCAGDRTQ	2.5522
DOMAIN_21095 (protein, listed as Trichechus manatus) LKASVSFKDVAVELTQEEWQHMGPAQRTLYRDVMLENYSHLVSVGYCIFKPEVIFKLEQGEQPWFLEQEFSNQSYPEDYNI	2.5003
DOMAIN_19699 (protein, listed as Otolemur garnettii) LQGSVSFKDVTVDFTQEEWQQLDPAQKALYRDVMLENYCHFVSVGFHMTKPDMIRRLEQGEELWTERIFPGQSYLEEDGKA	2.8474
DOMAIN_21277 (protein, listed as Aotus trivirgatus) PQDLMTFDDVAVEFTQWEWGQLNPAQKDLYREVMLENFRNLTLLGLLVSKPYMICQLEEGGEPFMVNTEISVGAHSDWERR	2.7115
DOMAIN_20336 (protein, listed as Panthera pardus) SQGTVSFKDVAVNFTQEEWQYLDLPQRDLYKDVMLENYTNLISVGYQTTKPSVIHKLEQGEEPWMVEREIPNWSYAEETWQ	2.3293

Same assay, conditions: high-throughput screen of dXR repression of the HBEGF gene; change in abundance of each domain in the library before and after diphtheria toxin selection

Molecule	Log2 (fold change)
DOMAIN_143 (protein, listed as Pan paniscus) MAAMPLKAQYQEMVTFEDVAVHFTKTEWTGLSPAQRALYRSVMLENFGNLTALGYPVPKPALISLLEGGDMAWGLEAQDDP	3.63
DOMAIN_31643 (protein, listed as Micrurus lemniscatus) FREVSVYFSEEEWSWLDPDQKALYWEVMLENHRNMASLGDDGQENKDSYELLQGITARDTMETSAIEMEVERYKEKQSDDWNQESSSCTDDSV	3.8782
DOMAIN_92 (protein, listed as Pan paniscus) FGNLLGVPWAQGNSALPEGLLSFKDISMEFTWDEWQLLDSTQKYLYRDVILENYHNLISVGYHGTKPDLIFKLEQGEDPWI	2.1475
